One series has as its target ALPP (Homo sapiens, UniProt P05187). The experiment in a line: BLI binding kinetics, human ALPP immobilised on AR2G sensors (KD / KD apparent). The conditions noted are these: for hALPP Ka / hALPP Kd: VHH domains. The procedure:
Binding kinetics were determined using the Biolayer Interferometry (BLI) Octet K2 system (Sartorius). Human ALPP, ALPPL2, ALPL (each fused with a cysteine stabilised leucine zipper) and ALPI, (SEQ ID NO: 265, SEQ ID NO: 266 and SEQ ID NO: 267 and SEQ ID NO: 264 respectively) were immobilised in sodium acetate pH5 buffer to AR2G sensors using amine coupling. All assays were conducted in PBS with a plate temperature of 25° C. Ka (M^−1s^−1), Kd (s^−1) and KD (nM) values were determined using Octet Data Analysis High Throughput software (ForteBio) for Biolayer Interferometry.
(§1) Binding kinetics were determined using the Biolayer Interferometry (BLI) Octet K2 or R4 system (Sartorius). Human ALPP, ALPPL2 and ALPL all fused with a disulphide stabilised leucine zipper (SEQ ID NO: 265, SEQ ID NO: 266, and SEQ ID NO: 267) and ALPI His (SEQ ID NO: 264) were used in BLI experiments. For KD apparent measurements, the ALPP proteins were immobilised in sodium acetate pH5 buffer to AR2G sensors using amine coupling. To measure 1:1 interactions, AHC biosensors were used to immobilise Fc-fused proteins. All assays were conducted in HBS-EP with a plate temperature of 25° C. Ka (M^−1s^−1), Kd (s^−1) and KD (nM) values were determined using Octet Data Analysis High Throughput software (Sartorius) for Biolayer Interferometry.
as §1, with “NO:264)” for “NO: 264)”
On the technique in general: BLI is a label-free optical method that tracks binding on a fibre tip over time.

In the next series the target is T1, ALPI His homodimer (Homo sapiens, UniProt P09923).
T1 sequence (P09923 with tags, fused parts or gaps): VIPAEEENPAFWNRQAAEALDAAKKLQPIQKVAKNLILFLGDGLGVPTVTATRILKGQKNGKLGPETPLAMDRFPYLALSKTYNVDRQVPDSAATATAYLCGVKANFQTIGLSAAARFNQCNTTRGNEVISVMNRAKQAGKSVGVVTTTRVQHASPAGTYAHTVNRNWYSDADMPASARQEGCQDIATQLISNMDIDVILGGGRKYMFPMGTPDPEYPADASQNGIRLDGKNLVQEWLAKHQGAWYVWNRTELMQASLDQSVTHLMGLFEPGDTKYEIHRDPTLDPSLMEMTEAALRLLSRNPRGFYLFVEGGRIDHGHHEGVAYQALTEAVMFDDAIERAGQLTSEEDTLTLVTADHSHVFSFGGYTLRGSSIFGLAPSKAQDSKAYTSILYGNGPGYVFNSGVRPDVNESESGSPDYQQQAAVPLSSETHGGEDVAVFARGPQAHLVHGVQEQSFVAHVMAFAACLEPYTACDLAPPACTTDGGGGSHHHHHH
Nature of the series: ELISA binding to ALPI. The conditions noted are these: 500 ng purified VHH. The method, then:
ELISA was used to test the binding and specificity of the VHHs. ALPP CysHis (SEQ ID NO: 263), ALPI His homodimer (SEQ ID NO: 264) or BSA (Thermo Fisher) were coated onto plates and 500 ng of each purified VHH added. Anti-Llama—HRP antibody was used for detection.

Series [1] is described as follows: Thermal stability (Protein Thermal Shift assay). Format: physicochemical. The following applies: VHH domains, first derivative analysis. The method, then:
Thermal stability assays used Applied Biosystems StepOne Real Time PCR system with the Protein Thermal Shift™ dye kit (Thermo Fisher). The assay mix was set up so that the protein was at a final concentration of 20 µM in 20 μL. 5 μL of Thermal Shift™ buffer was added alongside 2.5 μL 8× Thermal Shift™ Dye. Assays were run using the StepOne software and data analysed using Protein Thermal Shift™ software. All data are from first derivative analysis.

The values below come from patent US20260216242A1, “ALPP-SPECIFIC VARIANT ANTIGEN BINDING MOLECULES” (ALMAC DISCOVERY LIMITED, priority 2022, published 2026).

Sequence of ALPP (P05187 with tags, fused parts or gaps): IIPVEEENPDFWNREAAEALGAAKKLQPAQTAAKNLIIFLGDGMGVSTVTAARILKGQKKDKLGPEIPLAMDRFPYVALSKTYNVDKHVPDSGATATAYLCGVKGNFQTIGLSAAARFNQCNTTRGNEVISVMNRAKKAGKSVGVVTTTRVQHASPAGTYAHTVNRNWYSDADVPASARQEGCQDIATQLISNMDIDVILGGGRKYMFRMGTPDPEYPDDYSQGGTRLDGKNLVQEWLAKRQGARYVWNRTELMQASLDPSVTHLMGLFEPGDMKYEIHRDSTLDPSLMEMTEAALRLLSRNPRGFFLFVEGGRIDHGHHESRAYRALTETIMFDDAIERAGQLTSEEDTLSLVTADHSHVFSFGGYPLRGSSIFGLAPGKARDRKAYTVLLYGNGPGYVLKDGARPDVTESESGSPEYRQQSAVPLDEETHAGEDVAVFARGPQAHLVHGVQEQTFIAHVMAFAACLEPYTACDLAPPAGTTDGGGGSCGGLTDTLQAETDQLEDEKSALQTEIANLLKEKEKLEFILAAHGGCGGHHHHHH

B1: E12: ALPP targeting VHH domain, SEQ ID NO: 33 (protein)
VHH: QVQLVESGGGSVQAGGSLRLSCAASGPSISNFAMGWFRQAPGKEREFVAGISWGGGRTNYLDSVKGRFTISRDNAKNMVHLQMNSLKPEDTTVYYCAGRYGRGRDVEYEYDYWGQGTQVTVSS
Consider B1, for which, in the series with ALPP, the “hALPP Ka” value came out at 39200 M⁻¹ s⁻¹ and the “hALPP Kd” value was 0.000028 s⁻¹. Also, the “ELISA hALPI” value with ALPI His homodimer is given as “No Binding”. The Tm (commonly the temperature at the midpoint of the melting transition) in series [1] turned out to be 55.5 °C.

B2: H09: ALPP targeting VHH domain, SEQ ID NO: 39 (protein)
VHH: QVQLVESGGGSVQTGGSLRLSCAASGPSLSNYAMGWFRQAPGKEREFVAGISWGGGRTNYLDSVKGRFTISRDNAKNTMYLQMNSLKPEDTAVYYCAGRYGRGRDVEYEYDYWGQGTQVTVSS
As for B2, in the series with ALPP, the “hALPP Ka” value came out at 58600 M⁻¹ s⁻¹ and the “hALPP Kd” value was under 1e-07 s⁻¹. Besides, the “ELISA hALPI” value with ALPI His homodimer is “No Binding”. For the same molecule, the Tm in series [1] worked out at 68.8 °C.

B3: H10: ALPP targeting VHH domain, SEQ ID NO: 40 (protein)
VHH: QVQLVESGGGSVQTGGSLRLSCAASGPSLSNYAMGWFRQAPGKEREFVAGISWGGGRTNYLDSVKGRFTISRDNAKNTMYLQMNSLKPEDAAVYYCAGRYGRGRDVEYEYDYWGQGTQVTVSS
As to B3, in the series with ALPP, the “hALPP Ka” value worked out at 45900 M⁻¹ s⁻¹ and the “hALPP Kd” value worked out at 0.0000085 s⁻¹. Moreover, the “ELISA hALPI” value with ALPI His homodimer is “No Binding”. In addition, in series [1], the Tm worked out at 64.9 °C.

B4: A12: ALPP targeting VHH domain, SEQ ID NO: 19 (protein)
VHH: QVHLVECGGGSVQAGGFLRLSCAASGPSLSNYAMGRFRQAPGKEREFVAGISWGGGRTSYTDSVKGRFTISRDNAKNTVYLQMNNLEPEDTGVYYCAGRYGRGRNVEYEYDYWGQGTKVTVSS
In the case of B4, in the series with ALPP, the “hALPP Ka” value came out at 360000 M⁻¹ s⁻¹ and the “hALPP Kd” value was under 1e-07 s⁻¹. The Kd in the series with ALPP (VHH domains (His-tagged monomers), PBS, 25° C., read-out: hALPP KD) was under 0.01 nM. Further, the “ELISA hALPI” value with ALPI His homodimer is “No Binding”. Moreover, in series [1], the Tm is 76.3 °C.

B5: F09: ALPP targeting VHH domain, SEQ ID NO: 36 (protein)
VHH: QVQLVESGGGSVQAGGSLRLSCAASGPSLSNYAMGWFRQAPGKEREFVAGISWGGGRTSCTDSVKGRFTISRDNAKNTVYLQMNNLKPEDTGVYYCAGRYGRGRNVEYEYDYWGQGTQVTVSS
On to B5, for which, in the series with ALPP, the “hALPP Ka” value amounted to 40600 M⁻¹ s⁻¹ and the “hALPP Kd” value was under 1e-07 s⁻¹. Moreover, in the series with ALPI His homodimer, the “ELISA hALPI” value is recorded as “No Binding”. For the same molecule, in series [1], the Tm came out at 72.1 °C.

B6: D08: ALPP targeting VHH domain, SEQ ID NO: 27 (protein)
VHH: QVHLVESGGGSVQAGGSLRLSCAASGPSLSNYAMGWFRQAPGKEREFVAGISWGGGRTSYTDSVKGRFTISRDNAKNTVYLQMNNLKPEDTGVYYCAGRYGRGRNVEYEYDYWGQGTKVTVSS
As for B6, in the series with ALPP, the “hALPP Ka” value was 175000 M⁻¹ s⁻¹ and the “hALPP Kd” value is under 1e-07 s⁻¹. Moreover, in the series with ALPI His homodimer, the “ELISA hALPI” value was “No Binding”. For the same molecule, the Tm in series [1] came out at 64.9 °C.

B7: D11: ALPP targeting VHH domain, SEQ ID NO: 29 (protein)
VHH: QVQLVESGGGSVQAGGSLRLSCAASGPSLSNYAMGWFRQAPGKEREFVAGISWGGGRTSYTDSVKGRFTISRDNAKNTVYLQMNNLKPEDTGVYYCAGRYGRGRNVEYEYDYWGQGTMVTVSS
For the molecule B7, in the series with ALPP, the “hALPP Ka” value amounted to 97700 M⁻¹ s⁻¹ and the “hALPP Kd” value was under 1e-07 s⁻¹. The “ELISA hALPI” value in the series with ALPI His homodimer is reported as “No Binding”. The Tm in series [1] worked out at 78.1 °C.

B8: C06: ALPP targeting VHH domain, SEQ ID NO: 24 (protein)
VHH: QVQLVESGGGLVQPGGSLRVSCAASGPSLSNYAMGWFRQAPGKEREFVAGISWGGGRTSYTDSVKGRFTISRDNAKNTVYLQMNNLKPEDTGVYYCAGRYGRGRNVEYEYDYWGQGTQVTVSS
Regarding B8, in the series with ALPP, the “hALPP Ka” value was 368000 M⁻¹ s⁻¹ and the “hALPP Kd” value was under 1e-07 s⁻¹. Further, the “ELISA hALPI” value with ALPI His homodimer was “No Binding”. For the same molecule, the Tm in series [1] was 71.6 °C.

B9: E11: ALPP targeting VHH domain, SEQ ID NO: 32 (protein)
VHH: QVQLVESGGGSVQAGGSLRLSCAASGPSLSNFAMGWFRQPPGKEREFVAGISWGGGRTSYTDSVKGRFTISRDNAKNTVYLQMNNLKPEDTGVYYCAGRYGRGRNVEYEYDYWGQGTQVTVSS
Regarding B9, in the series with ALPP, the “hALPP Ka” value amounted to 149000 M⁻¹ s⁻¹ and the “hALPP Kd” value turned out to be 0.0000018 s⁻¹. Besides, in the series with ALPI His homodimer, the “ELISA hALPI” value is recorded as “No Binding”. For the same molecule, the Tm in series [1] was found to be 78.0 °C.

B10: C05: ALPP targeting VHH domain, SEQ ID NO: 23 (protein)
VHH: QVQLVESGGGLVQAGGSLRLSCAASRRSFSEYAMGWFRQAPGKEREFVAAIGWSGVIEYADSVKGRFTISRDNAKDTVYLQMNSLKPEDTAVYYCAAGLGIRVVSQTPAYWGQGTQVTVSS
B10: in the series with ALPP, the “hALPP Ka” value was 394000 M⁻¹ s⁻¹ and the “hALPP Kd” value was under 1e-07 s⁻¹. Also, the “ELISA hALPI” value with ALPI His homodimer is “No Binding”. The Tm in series [1] stood at 80.6 °C.

B11: F12: ALPP targeting VHH domain, SEQ ID NO: 37 (protein)
VHH: QVQLVESGGGLVEAGGSLRLSCAVSGSALSDYNIGWFRQAPGKEREFVARKTWDGSSTKYDDSVKGRFTVSIDNAKNTAYLQMNSLKTEDTAVYYCAAGRYSRVRGWEYDYWGQRTQVTVSS
For B11, in the series with ALPP, the “hALPP Ka” value came to 38600 M⁻¹ s⁻¹ and the “hALPP Kd” value is under 1e-07 s⁻¹. Besides, the “ELISA hALPI” value with ALPI His homodimer is reported as “No Binding”. Further, the midpoint of thermal melting (Tm) in series [1] was 62.9 °C.

B12: A08: ALPP targeting VHH domain, SEQ ID NO: 18 (protein)
VHH: QVQLVESGGGLVQAGESLRLACAASGTIFSGNAVGWYRQAPEKQREWVSSITDYGDTDYAEAVKGRFTISRDNAKNTVYLQMNSLKPEDTAVYYCYVYQRGESEEYWGQGTKVTVSS
For B12, in the series with ALPP, the “hALPP Ka” value amounted to 429000 M⁻¹ s⁻¹ and the “hALPP Kd” value is 0.000012 s⁻¹. Besides, in the series with ALPI His homodimer, the “ELISA hALPI” value was “No Binding”. Moreover, the Tm in series [1] was 71.4 °C.
